Source: patent US20110009342A1, “USES OF PDCD5 POLYPEPTIDE FOR TUMOR CHEMOTHERAPY AND ORGAN PROTECTION” (priority 2008, published 2011)

Experiments:
K562 cells = experiment: Annexin-V apoptosis by flow cytometry, Ara-C; type: cell-based
Experimental: Methods: Cell staining with FITC/Annexin-V and cell apoptosis detection in vitro by flow cytometry: K562 cells (ATCC) were maintained in RPMI 1640 (Life Technologies, USA) supplemented with 10% FBS (Hyclone, USA), and were plated in 24-well culture dishes to a density of 2×10^5 cells per well. rhPDCD5 protein was added in each well with a final concentration of 15 μg/mL, 30 μg/mL and 60 μg/mL, respectively. Chemotherapeutic drug Ara-C (Pharmacia, Italia) was then added with a final concentration of 0.1 μg/mL and RPMI 1640 medium supplemented with 10% FBS was added to bring the culture system to 1 mL. After incubation for 48 hours, the cells were stained with Annexin-V/PI (Biosea) and then were analyzed for apoptosis by flow cytometry.

Raji cells = experiment: colony-forming ability (CFA) assay, ADM; type: cell-based
Experimental: Analysis for colony forming ability (CFA): U937 cells (ATCC), in the logarithmic phase, were maintained in RPMI 1640 medium supplemented with 20% FBS and 0.4% methyl cellulose (Sigma) by the semi-solid colony culture method and were adjusted to a density of 5×10^3 cells/mL. The cells were divided into control groups and test groups, and each group was assayed in triple wells. U937 cells in the control groups were treated with DNR alone, with the final concentrations of 0 ng/mL and 0.5 ng/mL. U937 cells in the test group were treated with DNR of various concentrations combined with PDCD5 of various concentrations, while the final concentrations of PDCD5 were 0 μg/mL, 0.625 μg/mL, 1.25 μg/mL, and 2.5 μg/mL, respectively. After incubation for 14 days in a 37° C., 5% CO2 and saturatedly humidified incubator, a colony with more than 30 cells was counted by an inverted microscope in order to analyze colony forming ability of each group. […]
Methods: Colony-forming ability (CFA) assay: Raji cells of logarithmic growth phase were cultured, and the method was the same as that in Example 8. […] The numbers of colonies (containing≧30 cells) were counted by inverted microscope to observe the CFA, which is indicated by the ratio of average number of colony formation in each of the test groups versus that of the untreated control group.

[1] = tested on: HeLa, MGC-803, HT-29, A549, PC-3, U937, HL-60, Jurkat T lymphocytes, K562, Raji, TF-1 cells; experiment: entry of exogenous PDCD5 into cell types; type: cell-based
U937 cells = experiment: cell apoptosis assay, DNR; type: cell-based
Experimental: Methods: Cell apoptosis assay: U937 cells (ATCC), in the logarithmic phase, were maintained in RPMI 1640 (Life Technologies, USA) supplemented with 10% FBS (Hyclone, USA), and were adjusted to a density of 2×10^5 cells/mL and then were divided into control groups and test groups. U937 cells in the control groups were treated with DNR (Pharmacia Italia SPA) alone, with the final concentrations of 0 μg/mL, 0.05 μg/mL, and 0.1 μg/mL. U937 cells in the test groups were treated with DNR of various concentrations combined with PDCD5 of various concentrations, with the final concentrations of PDCD5 being 0 μg/mL, 2.5 μg/mL, and 5 μg/mL, respectively. After being incubated for 24 hours in a 37° C., 5% CO2 and saturatedly humidified incubator, the cells were stained with Annexin-V/PI (Biosea) and then were analyzed for apoptosis with a FACSCalibur flow cytometer.

HL-60 cells = experiment: cell apoptosis assay, As2O3; type: cell-based
Experimental: Methods: Cell apoptosis assay: HL-60 cells (ATCC) of logarithmic growth phase were cultured and the density of cells was 2×10^5/mL. The cells were divided into control and test groups. In the control groups, the HL60 cells were treated only with As2O3 (Harbin Yida Pharmaceutical Co., Ltd.), and the final concentration of As2O3 were 0 μg/mL, 0.25 μg/mL and 0.5 μg/mL, respectively. In the test groups, the HL60 cells were treated with As2O3 in the various concentrations combined with PDCD5 in various concentrations, the final concentrations of PDCD5 being 0 μg/mL, 5 μg/mL, 10 μg/mL and 20 μg/mL, respectively. The cells were incubated in a 37° C., 5% CO2 and saturatedly humidified incubator for 24 h, and subsequently were stained with Annexin-V/PI and detected for apoptosis by flow cytometer.

7721 liver cancer cells = settings: Li et al. 2000; cited from earlier work
Jurkat cells = experiment: FITC/Annexin-V apoptosis by flow cytometry, DNR; type: cell-based
Experimental: Methods: The density of Jurkat cells were adjusted by RPMI 1640 medium (Life Technologies, USA) supplemented with 10% Fetal Bovine Serum (FBS, Hyclone, USA). […] Subsequently, DNR (Pharmacia Italia S.P.A) was added with its final concentration of 0.05 μg/mL, and RPMI 1640 medium supplemented with 10% FBS was added to ensure the system to be 1 mL. After 24h incubation, the sample was stained with FITC/Annexin-V (Beijing Biosea Biotechnology CO., LTD) and detected for apoptosis by flow cytometry.

HL60 cells = experiment: colony-forming ability (CFA) assay, As2O3; type: cell-based
Experimental: Analysis for colony forming ability (CFA): U937 cells (ATCC), in the logarithmic phase, were maintained in RPMI 1640 medium supplemented with 20% FBS and 0.4% methyl cellulose (Sigma) by the semi-solid colony culture method and were adjusted to a density of 5×10^3 cells/mL. The cells were divided into control groups and test groups, and each group was assayed in triple wells. U937 cells in the control groups were treated with DNR alone, with the final concentrations of 0 ng/mL and 0.5 ng/mL. U937 cells in the test group were treated with DNR of various concentrations combined with PDCD5 of various concentrations, while the final concentrations of PDCD5 were 0 μg/mL, 0.625 μg/mL, 1.25 μg/mL, and 2.5 μg/mL, respectively. After incubation for 14 days in a 37° C., 5% CO2 and saturatedly humidified incubator, a colony with more than 30 cells was counted by an inverted microscope in order to analyze colony forming ability of each group. The colony forming ability was shown as the ratio of average number of colony in each group versus that of the untreated control group in which the final concentrations of DNR and PDCD5 were 0 μg/mL.
Colony-forming ability (CFA) assay: HL60 cells of logarithmic growth phase were cultured by a method identical to that in Example 8. The cells were divided into control and test groups (each with 3 wells): In the control groups, the HL60 cells were treated only with arsenic trioxide and the final concentration of which were 0 μg/mL and 0.25 μg/mL, respectively; in the test groups, the HL60 cells were treated with different concentrations of As2O3, which was combined with different concentrations of PDCD5, the final concentrations of PDCD5 were 0 μg/mL, 5 μg/mL, 10 μg/mL and 20 μg/mL, respectively. Cultures were incubated in a 37° C., 5% CO2 and saturatedly humidified incubator for 14 days. The numbers of colonies (containing≧30 cells) were counted on day 14 by inverted microscope. The colony-forming ability was observed as the ratio of the number of average colony formation in the test groups versus that in the untreated control group. […]

B1: rhPDCD5: recombinant human programmed cell death 5 protein (SEQ ID NO:1) expressed in E. coli and purified (protein, listed as Homo sapiens)
chain: MADEELEALRRQRLAELQAKHGDPGDAAQQEAKHREAEMRNSILAQVLDQSARARLSNLALVKPEKTKAVENYLIQMARYGQLSEKVSEQGLIEILKKVSQQTEKTTTVKFNRRKVMDSDEDDDY
promotion of apoptosis induced by Ara-C (K562 cells): could significantly promote apoptosis
enhancement of inhibition of CFA by ADM (Raji cells): can significantly enhance the inhibition of CFA by ADM
specificity for cell types while entering into cells [1]: shows no specificity for cell types
enhancement of DNR-induced apoptosis (U937 cells): can significantly enhance DNR-induced apoptosis
enhancement of induced apoptosis (HL-60 cells): can significantly enhance As2O3-induced apoptosis
effect on apoptosis induced by hydroxy camptothecin (HCPT) (7721 liver cancer cells): could accelerate apoptosis of 7721 liver cancer cells
enhancement of DNR-induced apoptosis (Jurkat cells): can significantly enhance DNR-induced apoptosis
enhancement of CFA inhibition by As2O3 (HL60 cells): can significantly enhance the CFA inhibition by As2O3
effect on the CFA of HL60 (HL60 cells; rhPDCD5 alone): no significant affect
